T1: Mcl-1, Q07820
T1 chain: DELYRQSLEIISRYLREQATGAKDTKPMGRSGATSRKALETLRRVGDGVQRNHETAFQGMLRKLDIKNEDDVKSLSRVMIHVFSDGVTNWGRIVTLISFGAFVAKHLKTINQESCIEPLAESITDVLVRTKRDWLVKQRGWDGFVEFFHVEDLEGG


How the values were obtained:
Bcl-xL, Q07817 = test: peptide SPOT array, c-Myc-tagged receptor at 1 uM or 100 nM, anti-c-Myc-Cy3
Mcl-1, Q07820 = target: T1, Mcl-1, Q07820; test: as above

Bcl-xL, Q07817, sequence (Q07817 1-209): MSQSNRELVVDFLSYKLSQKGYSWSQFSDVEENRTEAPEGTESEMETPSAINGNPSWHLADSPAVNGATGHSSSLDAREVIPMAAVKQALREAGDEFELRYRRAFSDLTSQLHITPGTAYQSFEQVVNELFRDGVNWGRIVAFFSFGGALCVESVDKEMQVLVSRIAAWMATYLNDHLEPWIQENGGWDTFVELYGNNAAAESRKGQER

Binder | SPOT signal as a fraction of Bim BH3's signal on the same receptor and array (Bcl-xL, Q07817) | SPOT signal as a fraction of Bim BH3's signal on the same receptor and array (Mcl-1, Q07820)
DVGTGAGLLEDKKIGDEYFTFITDCK | 0.01 | 0.01
HGTSSRIGSSMKSVLEVMAIGRTFEE | 0.02 | 0.02
DEHISYVATKVCHLGDQLEGVNTPRQ [EXOC5] | 0.02 | 0.01
TPSRSALSSEDSLVGDTTGDTLEKFV | 0.01 | 0.01
KKCQDMIMTELTNAGDDVVVFYNDKA [ITPR3] | 0.02 | 0.01
LSPGRSVTAGIIIVGDEILKGHTQDT [FLAD1] | 0.01 | 0.01
CALLGSTGERDCLAGDSAGGNLCFTV [LIPE] | 0.01 | 0.01
GLFSATSGVDDKYVADTFGQEVRPVS [DDX7] | 0.02 | 0.01
ISDVQVFGYSLRFNLDLLRSAVQQVN [DBC1] | 0.03 | 0.02
DVGTGAGLLEIKKILDEYFTFITDCK | 0.02 | 0.02
TPSRSALSSELSLVLDTTGDTLEKFV | 0.02 | 0.01
TLHFNQRGTWLASGLDDLKVVVWDWV [DCAF8] | 0.02 | 0.02
FRLAQMCGLHIVVHLDELEELINYYQ | 0.02 | 0.02
KLPVVGIGKHLCGMATDLALRCLVET | 0.04 | 0.03
QRLINLVGESLRLLGNTFVALSDLRC | 0.05 | 0.03
LRCEMASTGEDACFGEGIHTAFLKAM | 0.02 | 0.03
DHTDGVVACAAGLIGDLCTAFGKDVL | 0.02 | 0.02
EKVLIFGGDIDKFAGDALLALWRVER [ADCY10] | 0.02 | 0.02
DHTDGVVACAAGLILDLCTAFGKDVL | 0.01 | 0.02
ELQAPATVQSLGLLGDRLCVGAAGGF [CDC42BPG] | 0.01 | 0.01
FRLAQMCGLHIVVHADELEELINYYQ | 0.02 | 0.02
GSGLHGWAFTDKQFAEMYVAKFAAKG [EEF2] | 0.12 | 0.03
RHFVIRRGQVLREILEEYGGVMVSFP [HDLBP] | 0.04 | 0.05
FRFAQLCGLHIVIHLDELEELMCYYQ [CLTCL1] | 0.02 | 0.03
KLPVVGIGKHLCGMLTDLALRCLVET | 0.04 | 0.03
QRLINLVGESDRLLGNTFVALSDLRC | 0.08 | 0.02

Further lines, results first:

SPOT signal as a fraction of Bim BH3's signal on the same receptor and array (Bcl-xL, Q07817) | SPOT signal as a fraction of Bim BH3's signal on the same receptor and array (Mcl-1, Q07820) | Binder
0.34 | 0.18 | SRQPRDFGDSLARGLKGFLRGVVGGV [VPS13C]
0.03 | 0.03 | AIKWDPTGNLDASCSDDMTLKIWSMK [TBL1XR1]
0.02 | 0.02 | DLLGMVVVDELHMLLDSHRGYLLELL [POLQ]
0.02 | 0.02 | RCELQICGLAMADALEYLCVCGQERT [OBSCN]
0.02 | 0.02 | AVLCVECGYKDRFFGEDAEIAARELN [MSH3]
0.29 | 0.24 | CILNSFYGYVMRKGLRWYSMEMAGIV [POLE]
0.05 | 0.02 | KRALIQCAKDDAKASDEVTRLAKEVA
0.02 | 0.02 | DLSAVTLSRELQAMAEQLAENYHNTW [RYR1]
0.02 | 0.02 | VLSRIEAGRSDKSVMDEFGISKSTFY
0.03 | 0.03 | AKFLLYLGHSDSTWGDRMWHFAVSVF [SLC40A1]
0.04 | 0.04 | CDLLGAKGKDILYIGDHIFGDILKSK [NT5C2]
0.11 | 0.11 | VLSRIEAGRSLKSVMDEFGISKSTFY
0.02 | 0.01 | AALFLHAGCQLLTALEDGKVQVWSGS [TEP1]
0.21 | 0.05 | KRALIQCAKDIAKALDEVTRLAKEVA
0.02 | 0.01 | ITVVGDVGGRDAIIVDDIIDDVESFV [PRPSAP1]
